Consider two molecules from paper PMC2132493.

This data set deals with mXRN1p (Mus musculus (mouse; testis BALB/c and …, UniProt P97789 1-1719). The data set can be described thus: EMSA. (In general: In EMSA bound probe runs differently from free probe, usually more slowly.)
mXRN1p (Mus musculus, sequence (P97789 whole entry): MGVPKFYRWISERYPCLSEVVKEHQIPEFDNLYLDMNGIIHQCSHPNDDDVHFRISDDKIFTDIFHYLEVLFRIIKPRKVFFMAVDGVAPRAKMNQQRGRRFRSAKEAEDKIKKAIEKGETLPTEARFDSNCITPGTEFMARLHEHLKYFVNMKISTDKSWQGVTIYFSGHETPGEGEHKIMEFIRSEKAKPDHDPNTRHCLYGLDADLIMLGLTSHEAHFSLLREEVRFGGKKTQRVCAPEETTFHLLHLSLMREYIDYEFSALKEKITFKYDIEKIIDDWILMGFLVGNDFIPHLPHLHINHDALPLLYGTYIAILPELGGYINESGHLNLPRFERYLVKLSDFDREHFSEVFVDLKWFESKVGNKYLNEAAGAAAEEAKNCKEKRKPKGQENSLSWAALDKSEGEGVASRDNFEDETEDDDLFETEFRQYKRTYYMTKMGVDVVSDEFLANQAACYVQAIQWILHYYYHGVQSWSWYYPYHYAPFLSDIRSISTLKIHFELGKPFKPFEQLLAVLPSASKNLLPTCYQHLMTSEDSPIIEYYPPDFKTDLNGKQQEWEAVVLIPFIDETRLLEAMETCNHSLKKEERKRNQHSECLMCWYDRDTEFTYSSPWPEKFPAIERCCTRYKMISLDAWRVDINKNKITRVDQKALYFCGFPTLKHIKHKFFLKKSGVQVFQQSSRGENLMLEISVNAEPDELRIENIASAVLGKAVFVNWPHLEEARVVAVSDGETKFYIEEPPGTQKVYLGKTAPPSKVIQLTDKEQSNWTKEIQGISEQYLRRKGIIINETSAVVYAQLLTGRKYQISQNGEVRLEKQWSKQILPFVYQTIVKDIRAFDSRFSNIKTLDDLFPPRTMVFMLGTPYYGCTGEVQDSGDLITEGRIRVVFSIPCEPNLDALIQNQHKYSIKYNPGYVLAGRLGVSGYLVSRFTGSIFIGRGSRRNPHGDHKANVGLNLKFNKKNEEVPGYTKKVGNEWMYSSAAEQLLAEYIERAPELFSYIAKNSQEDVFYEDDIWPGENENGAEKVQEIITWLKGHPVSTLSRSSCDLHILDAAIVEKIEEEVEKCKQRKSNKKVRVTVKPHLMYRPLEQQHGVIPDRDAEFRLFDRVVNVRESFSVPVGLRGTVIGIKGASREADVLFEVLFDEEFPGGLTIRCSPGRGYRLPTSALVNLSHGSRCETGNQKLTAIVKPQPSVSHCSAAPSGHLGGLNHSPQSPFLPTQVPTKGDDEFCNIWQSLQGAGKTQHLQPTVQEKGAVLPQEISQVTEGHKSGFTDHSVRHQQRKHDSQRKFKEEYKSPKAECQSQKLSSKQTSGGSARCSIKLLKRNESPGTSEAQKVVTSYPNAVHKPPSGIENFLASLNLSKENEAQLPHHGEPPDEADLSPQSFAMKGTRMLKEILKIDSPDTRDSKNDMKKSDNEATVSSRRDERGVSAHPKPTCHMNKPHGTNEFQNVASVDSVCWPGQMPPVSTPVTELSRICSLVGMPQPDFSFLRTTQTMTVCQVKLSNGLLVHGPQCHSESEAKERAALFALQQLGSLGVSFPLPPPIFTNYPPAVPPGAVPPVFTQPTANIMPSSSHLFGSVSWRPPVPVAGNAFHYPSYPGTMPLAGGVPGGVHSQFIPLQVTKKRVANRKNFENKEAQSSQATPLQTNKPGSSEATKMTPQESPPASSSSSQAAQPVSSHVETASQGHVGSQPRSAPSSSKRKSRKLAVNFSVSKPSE

For UAUGGGGGAGCUGGGGAAGGUGGGAUUU (structured_RNA) [rGL[G4]], the Ka was found to be 2.95e+10 M⁻¹.

Turning to TATGGGGGAGCTGGGGAAGGTGGGATTT (structured_DNA) [GL[G4]], the Ka turned out to be 1.26e+10 M⁻¹.
